Assay results published in patent publication US20060093613A1 (published 2006).

Target: T1, influenza virus nucleoprotein peptide on H-2Db (mouse)
T1 peptide: ASNENMDAM
Assay: Kd or kinetics

B1: F5 TCR (TCR, V domains shown)
Valpha: GDSVTQMQGQVTLSEDDFLFINCTYSTTWYPTLFWYVQYPGEGPQLLLKVTTANNKGISRGFEATYDKGTTSFHLQKASVQESDSAVYYCVLGDRQGGRALIFGTGTTVSVSP
Vbeta: KAGVTQTPRYLIKTRGQQVTLSCSPISGHRSVSWYQQTPGQGLQFLFEYFSETQRNKGNFPGRFSGRQFSNSRSEMNVSTLELGDSALYLCASSFDSGNSPLHFGNGTRLTVT
- binding result: recognises
